From the domain aggregation screens of Martell et al. (2025) come the findings set out here.
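Further: 20 min heating vs room temperature control held 20 min.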

The data set is described as follows: soluble fraction after stress (log2 fold change); higher = more stays soluble; pooled small domains, quantitative proteomics. The note with it: stress: 75 degC.
Regarding “HMYHADLIGLRVETAAGEKLGTVKAVHNFGAGDVIEITGAEDKDGLMVPFTAEVVPEVDIENGRIVVS”, the “soluble fraction (log2)” value is -0.0762.

Turning to “HMYHKKEKAQAANIEERIMILLSDGKHHHITEIKAIYVDEVITLNILEEMLAEEKVIIEGDMIMLVE”, the “soluble fraction (log2)” value is -3.64.

On to “HMYKLTTQRRAILDVIIENHDKHLNPEEIYDIVKEKYPEIGIATVYRTLQLLEKLNIIYRLNFDDGYNRYE”, for which the “soluble fraction (log2)” value is -2.87.

“HMYKLTYVVDGEVYLEETVSYGSKIAAAPAPEKEGYTFSGWEGLPEVMPAKDVTVSGSFTVN”: the “soluble fraction (log2)” value was -0.69.

As for “HMYKMKDRIKKIMEMQRTTQQDFADQLKIAPATLSSIFTGRTRPTLAIVDAIKSRFPQISTDWLMFGKGDM”, the “soluble fraction (log2)” value was -0.151.

For “HMYKNAFITYDNNLYYLGSDSKMAIGWQSIGGNTYYFRNWGGMITGKQVIDGKTYVFDEDGKLVQSPD”, the “soluble fraction (log2)” value was -1.25.

For the sequence “HMYLNYQTIGKRIRLLRKQQHLTQMTLAEMVDKSPTYISLVENGQKGPSLETLIDVANALKVTMDVLLAEY”, the “soluble fraction (log2)” value is -4.94.

On to “HMYLPPYMEVRAVMILDGKPMALMYIEGEGDGLIVSPGYKFDNGKGKVVSITPTKVVVLWAGTKMELG”, for which the “soluble fraction (log2)” value was -3.37.

As for “HMYLYHDLSDEAKAMGDEYVSVEHLVLALIRYPNNAVKELFREFGITRERFLQVLSTIRGNQRVTSDNPEA”, the “soluble fraction (log2)” value amounted to 0.0272.

With “HMYMFSGQRLKSLRKEKKMSQEKLGSLLNISKVAVSNWENAKSFPTMDNLNELAKVLEVEPHYF”, the “soluble fraction (log2)” value is -1.33.

Take “HMYMKLSVKDAALFLSVSPETVYRWVKQEEIPYHTVNDQLRFNRAELLEWATARSLEVSPDLFVP”: the “soluble fraction (log2)” value is -3.84.

In the case of “HMYMWQVEDLIRANGLDIERIKDSIIRPYELDEERKRELTQWYEDLIDMMRREGVAQSGHLQIN”, the “soluble fraction (log2)” value is -3.28.

“HMYNMEELAGHTEKVYNSLPEELKLVIKLREIENMSYDEISLKTGMPIGTVRSRLHRAREILVDSLKDY”: the “soluble fraction (log2)” value is -1.28.

In the case of “HMYQNRLFYTLKTGETVADLSKSQDINLSTIWSLNKHLYSSESEMMKAAPGQQIILPLKKLP”, the “soluble fraction (log2)” value is -0.247.

As for “HMYQPLRDVIFETLRKAIVSGDIKPGERLMEVSLANQMGVSRTPVREAIRRLEAEGLVTMTPRKGTHVAE”, the “soluble fraction (log2)” value was -0.891.

For the sequence “HMYQRLPFSFANRYKMVLESQHPERAPILYYVEPLKSAAIIEVSRVVKNGFTPQAITLDEFDKKLTDAYQR”, the “soluble fraction (log2)” value is -1.43.

As for “HMYRLSPSWRIVERDDGFEIYGGDDARFQLDPSPLVSRLAAGDAVTRDGLDPTGAIEFEQLLSAGMIRPEI”, the “soluble fraction (log2)” value is -0.263.

As for “HMYRYTTFKVKEADTLLPFIQKSLNGISHNRAKAILTGGGVLVDKKITRAYDFALRPGMTVEISKSKP”, the “soluble fraction (log2)” value was -1.72.

On to “HMYRYYSTLRPITPGAYPKPADNPAMLIHNFDNREYVGKIGREAWGYVEYNNPLTKEQIEAFDFVAE”, for which the “soluble fraction (log2)” value stood at 0.0626.

With “HMYSDIERAMTNAPEQFANKQAVLDFLNKNRIKKSEVDDYRIASLLKLYDDASPISKTEIISQVRT”, the “soluble fraction (log2)” value was 0.396.

In the case of “HMYSDQRMEIFLEHLPDFIEQLSHKHVTRQMVWEDYRMIYPDGYGKSQFFFHLAQNLKAQKP”, the “soluble fraction (log2)” value was -3.21.

Consider “HMYSYSFTSSEGSTFEGQLIRVEESQVTILRYADQKEFSIPKSRFIEADQVYFERWAIENPQL”, for which the “soluble fraction (log2)” value is -4.18.

For “HMYSYSGSVSNTHDVPVSVVLKDAEGVAIASWDLQAKQSLNISAKDIATSSGTIEITGDGVSETKTVTFTK”, the “soluble fraction (log2)” value stood at 1.03.

“HMYTVKELSRLTGLTPRTLRYYDAIGLLSPARNRDNDYRLYGGAEVDRLQEILLYREMGLPLEEIGRILD”: the “soluble fraction (log2)” value is -1.51.

For the sequence “HMYTVQPHESLWSIAASQLGDGHRFTEIVDLNQELLGGKANFIKPGWVLQIP”, the “soluble fraction (log2)” value is -0.362.

Regarding “HMYTVVVGDSPSLIADKTGVPLKELTAMNPNLSDNFLPGKQLL”, the “soluble fraction (log2)” value is -0.0135.

For the sequence “HMYVEVPNFIGVPLVKVQSELASLGLVFNKSVVYQTSPYLKGNILDQRPLPGEVVPLNTEMSFTVSSGPA”, the “soluble fraction (log2)” value is -0.5.

Consider “HMYVKIAADAAMPYTIKRVVTDYSSAALDAAYDGSLPKWLTISSSTKDAGSGLYRHEIIYTVTAHPE”, for which the “soluble fraction (log2)” value was -0.666.

In the case of “HMYVYEPGEFAVRGSILDVYSYASEFPYRIDFFGDDVESIRTFEVQTQLSKEAKDRVSIVPDTEQ”, the “soluble fraction (log2)” value was -0.258.

Turning to “HMYYNDEELDGYRGTPSDAYSDNAVEEFREVLYTLREDEVSGWVRSLQLRGIFLPDAIKDETFLI”, the “soluble fraction (log2)” value is -1.33.

As for “HMYYTAPDGRKREILDAALRLIAAGGPDSLTYRRVADEAGVPLGSLTYYFEAREDLIREAFRLYIAEASR”, the “soluble fraction (log2)” value was -3.16.
